The record followed here is patent US9791436.

This assay addresses SH3-peptide-tagged TVMV-inducible HCV-based signal transducers. The assay can be described thus: cell-based or functional assay.

B1: SH3-H6-68-AP (protein)
chain: SGGSGAEYVRALFDFNGNDEEDLPFKKGDILRIRDKPEEQWWNAEDSEGKRGMIPVPYVEKYRPASASVSALIGGRGGSGGSGGSGGSGGSGGSSKALLKGVRDFNPISACVCLLENSSDGHSERLFGIGFGPYIIANQHLFRRNNGELTIKTMHGEFKVKNSTQLQMKPVEGRDIIVIKMAKDFPPFPQKLKFRQPTIKDRVCMVSTNFQQKSVSSLVSESSHIVHKEDTSFWQHWITTKDGQCGSPLVSIIDGNILGIHSLTHTTNGSNYFVEFPEKFVATYLDAADGWCKNWKFNADKISWGSFILWEDAPEDFMSGLVPRGVGREYVRFAPGSTHHHHHH
Consider B1, for which the induction ratio worked out at 20 fold.
